According to the supplement of paper PMC12667976:

B1: library; numbered along this chain (parent)
chain: MATDAALRRLLRLHRTEIAVAVDSAFPLLHALADHDVVPEDKFQETLHLKEKEGCPQAFHALLSWLLTQDSTAILDFWRVLFKDYNLERYGRLQPILDSFPKDVDLSQPRKGRKPPAVPKALVPPPRLPTKRKASEEARAAAPAALTPRGTASPGSQLKAKPPKKPESSAEQQRLPLGNGIQTMSASVQRAVAMSSGDVPGARGAVEGILIQQVFESGGSKKCIQVGGEFYTPSKFEDSGSGKNKARSSSGPKPLVRAKGAQGAAPGGGEARLGQQGSVPAPLALPSDPQLHQKNEDECAVCRDGGELICCDGCPRAFHLACLSPPLREIPSGTWRCSSCLQATVQEVQPRAEEPRPQEPPVETPLPPGLRSAGEEVRGPPGEPLAGMDTTLVYKHLPAPPSAAPLPGLDSSALHPLLCVGPEGQQNLAPGARCGVCGDGTDVLRCTHCAAAFHWRCHFPAGTSRPGTGLRCRSCSGDVTPAPVEGVLAPSPARLAPGPAKDDTASHEPALHRDDLESLLSEHTFDGILQWAIQSMARPAAPFPS

Variants of: B1
Assay: AIRE transcriptional activation functional score (insulin promoter-GFP; nonsense median 0, synonymous median 1) (normalised score); higher = higher AIRE activity (more reporter activation)
Conditions: with insulin promoter-GFP reporter in HEK293
Procedure: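 Deep mutational scan of full-length human AIRE (codon-optimized cDNA, DT-POPCode NNN libraries over three regions) integrated at a Bxb1 landing pad in HEK293 cells carrying an insulin core promoter-GFP reporter at a Flp-In site. Cells were sorted for the top 10% GFP about 14 days after transfection. Variant frequency log-ratios (select vs non-select, TileSeq) were rescaled so that the nonsense median is 0 and the synonymous median is 1, then averaged over biological replicates.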

AIRE transcriptional activation functional score of substitutions, site by site:
E40: F -0.259; G -0.121; H -0.15; I 0.121; K -0.28; L 0.272; N -0.324; P 0.61; Q 0.577; R -0.956; S 0.167; T -0.598; V 0.0752; W -0.133; Y -0.301
D41: A 1.59; C 1.39; E 1.17; F 0.468; G 0.147; H -1.75; I -1.3; K -1.32; L 0.547; N 1.79; P 0.148; R 0.0782; S 0.72; T 0.827; V 0.0716; W 0.551; Y 1.79
K42: A -0.323; C -0.000636; D -1.69; E -0.598; F 0.0107; G -0.403; H 0.0173; I 0.472; L 0.0963; M 0.538; N 0.98; P -0.0735; Q 0.53; R -0.281; S 0.172; T -0.0654; V 0.822; W -0.0922; Y -0.464
F43: A -0.325; C 0.163; D -0.408; E -1.08; G 0.413; H -1.42; I -0.197; L 0.0431; M 0.757; P 0.556; Q -0.593; R 0.134; S 0.0986; T -0.219; V 0.36; W 0.0722; Y 0.108
Q44: A 0.712; C -0.0407; D 0.948; E -0.441; F 1.98; G 0.0554; H -0.545; I 0.916; K 1.33; L 0.658; M -0.749; N 0.983; P -0.185; R 0.783; S 0.392; T 0.288; V 0.735; W 0.23; Y 0.0762
E45: A -0.429; C -2.39; D 0.278; F 0.576; G 0.0251; H -0.452; I -1.78; K 0.348; L 0.233; M -1.43; Q 1.17; R -0.0981; S -0.772; T -0.232; V 0.134; W 1.17; Y -0.129
T46: A 0.0907; C 0.841; D -0.445; E 1.4; F -1.2; G -0.878; H 0.478; I 0.403; K -3.42; L -0.561; M 2.55; N -0.328; R 0.389; S 0.455; V -0.0333; Y 0.503
L47: A 0.636; C -0.421; F 0.568; G 0.313; I -0.62; K -1.23; R -0.624; S 0.462; T -0.713; V 0.302; W -0.717
H48: C 0.651; G 0.181; L 0.44; N 0.738; P -0.897; Q 1.5; R 1.64; S -0.318; T 0.372; V 1.53; Y 1.23
L49: A 0.327; C -0.191; D -0.689; F 0.262; G -0.0766; H -0.538; I -0.275; M 0.566; N -0.822; P -0.173; Q -0.302; R 1.04; S -0.858; T -0.364; V 0.492; W -0.0359; Y 0.268
K50: A -0.833; C 0.454; D 1.78; E 0.64; F -0.139; G 1.42; H 0.46; I 0.717
